Experimental data published in publication PMC10641520 (The Journal of Biological Chemistry, 2023).

How the values were obtained:
[1] = target: the molecule itself; assay: AUC
[2] = target: the molecule itself; assay: AUC; remark: listed apart in the source

B1: Acinetobacter baumannii TIR domain protein (AbTir-TIR^wt, aa134-269) (domain or fragment, UniProt A0A009IHW8 134-269, looked up)
chain: EYDLFISHASEDKEDFVRPLAETLQQLGVNVWYDEFTLKVGDSLRQKIDSGLRNSKYGTVVLSTDFIKKDWTNYELDGLVAREMNGHKMILPIWHKITKNDVLDYSPNLADKVALNTSVNSIEEIAHQLADVILNR
- stoichiometry N [1]: 2
- Kd [2]: 1400 nM
